The values that follow come from US20260232827A1 (Zymeworks, published 2026).

Assay [1] addresses T1, cynomolgus monkey NaPi2b (cynomolgus monkey, UniProt O95436 1-690 (human entry)).
T1 construct: also called Cyno NaPi2b; Cy NaPi2b
T1 chain: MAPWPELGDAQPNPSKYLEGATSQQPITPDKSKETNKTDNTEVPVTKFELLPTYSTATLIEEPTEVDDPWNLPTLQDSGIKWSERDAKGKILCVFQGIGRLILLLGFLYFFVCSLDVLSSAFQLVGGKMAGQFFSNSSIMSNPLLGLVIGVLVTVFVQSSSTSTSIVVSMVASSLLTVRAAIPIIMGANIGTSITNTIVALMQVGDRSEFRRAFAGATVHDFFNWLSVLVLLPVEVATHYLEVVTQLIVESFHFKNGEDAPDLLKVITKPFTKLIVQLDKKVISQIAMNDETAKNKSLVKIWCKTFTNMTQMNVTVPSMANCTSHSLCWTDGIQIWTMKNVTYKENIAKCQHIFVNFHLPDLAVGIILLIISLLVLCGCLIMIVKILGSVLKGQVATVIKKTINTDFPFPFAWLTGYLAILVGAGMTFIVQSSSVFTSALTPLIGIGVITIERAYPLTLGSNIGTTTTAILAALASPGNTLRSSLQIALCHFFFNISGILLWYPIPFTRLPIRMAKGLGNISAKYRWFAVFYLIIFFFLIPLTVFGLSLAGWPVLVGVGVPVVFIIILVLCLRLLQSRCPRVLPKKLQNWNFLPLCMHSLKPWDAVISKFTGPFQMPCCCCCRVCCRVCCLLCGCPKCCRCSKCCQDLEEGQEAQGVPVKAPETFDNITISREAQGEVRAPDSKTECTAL
Kind of assay: flow cytometry, HEK293-6e cells transfected with cynomolgus NaPi2b.

The target of assay [2] is T2, Construct 5 (chimeric human NaPi2b, swap in NaPi2a in 304-348) (human).
T2 construct: also called CL_#13436
Kind of assay: flow cytometry, transfected HEK293-6e cells, antibody 2 nM.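 Further: transfected cells exposed to test antibody 24 h at 4 °C to block internalization, at least 1,000 events per well, background is mean MFI of unstained cells lacking primary antibody.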

For assay [3], the target named is T3, Construct 6 (human NaPi2b del 317-333) (human, UniProt O95436 1-690).
T3 construct: also called CL_#29919
T3 sequence: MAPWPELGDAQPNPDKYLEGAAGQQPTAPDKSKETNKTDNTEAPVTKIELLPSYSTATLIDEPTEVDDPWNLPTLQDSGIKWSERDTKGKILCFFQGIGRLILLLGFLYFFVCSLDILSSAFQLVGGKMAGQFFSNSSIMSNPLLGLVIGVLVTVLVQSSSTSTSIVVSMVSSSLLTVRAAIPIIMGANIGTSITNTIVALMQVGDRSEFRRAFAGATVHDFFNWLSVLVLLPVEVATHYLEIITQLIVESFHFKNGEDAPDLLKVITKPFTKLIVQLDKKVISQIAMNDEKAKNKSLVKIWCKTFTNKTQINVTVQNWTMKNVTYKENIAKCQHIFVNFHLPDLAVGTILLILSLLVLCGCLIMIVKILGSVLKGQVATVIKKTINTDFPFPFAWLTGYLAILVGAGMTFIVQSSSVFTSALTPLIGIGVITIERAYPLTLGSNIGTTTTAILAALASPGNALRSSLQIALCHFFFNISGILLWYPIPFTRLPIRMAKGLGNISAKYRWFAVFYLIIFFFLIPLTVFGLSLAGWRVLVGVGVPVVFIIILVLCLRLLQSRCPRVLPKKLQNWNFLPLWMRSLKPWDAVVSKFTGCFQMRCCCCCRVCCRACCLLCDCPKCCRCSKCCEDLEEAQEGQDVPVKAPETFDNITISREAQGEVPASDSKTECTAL
The assay is described as above.

Assay [4] has as its target T4, Construct 7 (human NaPi2b del 317-326) (human, UniProt O95436 1-690).
T4 construct: also called CL_#29921
T4 sequence: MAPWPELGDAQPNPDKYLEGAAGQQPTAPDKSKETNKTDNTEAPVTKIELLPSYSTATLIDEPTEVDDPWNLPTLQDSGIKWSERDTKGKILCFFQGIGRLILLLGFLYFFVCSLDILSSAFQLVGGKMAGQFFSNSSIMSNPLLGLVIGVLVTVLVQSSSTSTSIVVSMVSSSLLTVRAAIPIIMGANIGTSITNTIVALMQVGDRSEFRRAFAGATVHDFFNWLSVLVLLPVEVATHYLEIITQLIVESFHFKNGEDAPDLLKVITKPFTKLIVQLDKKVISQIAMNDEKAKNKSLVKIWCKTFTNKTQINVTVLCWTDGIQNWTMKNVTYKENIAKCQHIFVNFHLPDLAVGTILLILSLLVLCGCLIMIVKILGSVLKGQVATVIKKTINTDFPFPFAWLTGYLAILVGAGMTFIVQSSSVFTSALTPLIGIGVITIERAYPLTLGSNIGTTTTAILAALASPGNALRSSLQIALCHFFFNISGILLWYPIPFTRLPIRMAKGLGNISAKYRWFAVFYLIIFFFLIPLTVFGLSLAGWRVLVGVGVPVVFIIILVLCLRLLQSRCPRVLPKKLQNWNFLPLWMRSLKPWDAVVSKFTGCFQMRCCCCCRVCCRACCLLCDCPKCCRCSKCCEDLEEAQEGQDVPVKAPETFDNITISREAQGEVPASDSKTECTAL
The assay is described as above.

In assay [5] the target is T5, Construct 1 (chimeric human NaPi2b, swap in NaPi2c in 239-259) (human).
T5 construct: also called CL_#29914
The assay is described as above.

Assay [6] concerns the target T6, Construct 2 (chimeric human NaPi2b, swap in NaPi2c in 280-301) (human).
T6 construct: also called CL_#29915
The assay is described as above.

The target in assay [7] is T7, Construct 3 (chimeric human NaPi2b, swap in NaPi2c in 304-321) (human).
T7 construct: also called CL_#29916
The assay is described as above.

Assay [8] concerns the target T8, Construct 4 (chimeric human NaPi2b, swap in NaPi2c in 341-358) (human).
T8 construct: also called CL_#13435
The description is as above.

B1: v18993 (lifastuzumab), reference anti-NaPi2b antibody (antibody, human IgG1, kappa)
heavy 1: GEVQLVESGGGLVQPGGSLRLSCAASGFSFSDFAMSWVRQAPGKGLEWVATIGRVAFHTYYPDSMKGRFTISRDNSKNTLYLQMNSLRAEDTAVYYCARHRGFDVGHFDFWGQGTLVTVSSASTKGPSVFPLAPSSKSTSGGTAALGCLVKDYFPEPVTVSWNSGALTSGVHTFPAVLQSSGLYSLSSVVTVPSSSLGTQTYICNVNHKPSNTKVDKKVEPKSCDKTHTCPPCPAPELLGGPSVFLFPPKPKDTLMISRTPEVTCVVVDVSHEDPEVKFNWYVDGVEVHNAKTKPREEQYNSTYRVVSVLTVLHQDWLNGKEYKCKVSNKALPAPIEKTISKAKGQPREPQVYVYPPSRDELTKNQVSLTCLVKGFYPSDIAVEWESNGQPENNYKTTPPVLDSDGSFALVSKLTVDKSRWQQGNVFSCSVMHEALHNHYTQKSLSLSPG
heavy 2: not shown
light: GDIQMTQSPSSLSASVGDRVTITCRSSETLVHSSGNTYLEWYQQKPGKAPKLLIYRVSNRFSGVPSRFSGSGSGTDFTLTISSLQPEDFATYYCFQGSFNPLTFGQGTKVEIKRTVAAPSVFIFPPSDEQLKSGTASVVCLLNNFYPREAKVQWKVDNALQSGNSQESVTEQDSKDSTYSLSSTLTLSKADYEKHKVYACEVTHQGLSSPVTKSFNRGEC
B1 yielded a Bmax in assay [1] of 1560.

B2: lifastuzumab (v18993), reference anti-NaPi2b antibody (antibody, human IgG1, kappa)
heavy 1: GEVQLVESGGGLVQPGGSLRLSCAASGFSFSDFAMSWVRQAPGKGLEWVATIGRVAFHTYYPDSMKGRFTISRDNSKNTLYLQMNSLRAEDTAVYYCARHRGFDVGHFDFWGQGTLVTVSSASTKGPSVFPLAPSSKSTSGGTAALGCLVKDYFPEPVTVSWNSGALTSGVHTFPAVLQSSGLYSLSSVVTVPSSSLGTQTYICNVNHKPSNTKVDKKVEPKSCDKTHTCPPCPAPELLGGPSVFLFPPKPKDTLMISRTPEVTCVVVDVSHEDPEVKFNWYVDGVEVHNAKTKPREEQYNSTYRVVSVLTVLHQDWLNGKEYKCKVSNKALPAPIEKTISKAKGQPREPQVYVYPPSRDELTKNQVSLTCLVKGFYPSDIAVEWESNGQPENNYKTTPPVLDSDGSFALVSKLTVDKSRWQQGNVFSCSVMHEALHNHYTQKSLSLSPG
heavy 2: not shown
light: GDIQMTQSPSSLSASVGDRVTITCRSSETLVHSSGNTYLEWYQQKPGKAPKLLIYRVSNRFSGVPSRFSGSGSGTDFTLTISSLQPEDFATYYCFQGSFNPLTFGQGTKVEIKRTVAAPSVFIFPPSDEQLKSGTASVVCLLNNFYPREAKVQWKVDNALQSGNSQESVTEQDSKDSTYSLSSTLTLSKADYEKHKVYACEVTHQGLSSPVTKSFNRGEC
Regarding B2, the “Background-Subtracted AF647 Mean Fluorescence Intensity” value is 25 MFI in assay [2]; -91 MFI in assay [3]; 56 MFI in assay [4]; 1230 MFI in assay [5]; 473 MFI in assay [6]; 609 MFI in assay [7]. For the same molecule, the “Background-Subtracted AF647 Mean Fluorescence Intensity” value in assay [8] was 726 MFI.

B3: MX35 (v18992), reference anti-NaPi2b antibody (antibody, human IgG1, kappa)
heavy 1: GQVQLVQSGAEVVKPGASVKMSCKASGYTFTGYNIHWVKQAPGQGLEWIGAIYPGNGDTSYKQKFRGRATLTADTSTSTVYMELSSLRSEDSAVYYCARGETARATFAYWGQGTLVTVSSASTKGPSVFPLAPSSKSTSGGTAALGCLVKDYFPEPVTVSWNSGALTSGVHTFPAVLQSSGLYSLSSVVTVPSSSLGTQTYICNVNHKPSNTKVDKKVEPKSCDKTHTCPPCPAPELLGGPSVFLFPPKPKDTLMISRTPEVTCVVVDVSHEDPEVKFNWYVDGVEVHNAKTKPREEQYNSTYRVVSVLTVLHQDWLNGKEYKCKVSNKALPAPIEKTISKAKGQPREPQVYVYPPSRDELTKNQVSLTCLVKGFYPSDIAVEWESNGQPENNYKTTPPVLDSDGSFALVSKLTVDKSRWQQGNVFSCSVMHEALHNHYTQKSLSLSPG
heavy 2: not shown
light: GDIQMTQSPSSLSASVGDRVTITCSASQDIGNFLNWYQQKPGKTVKVLIYYTSSLYSGVPSRFSGSGSGTDYTLTISSLQPEDFATYYCQQYSKLPLTFGQGTKLELKRTVAAPSVFIFPPSDEQLKSGTASVVCLLNNFYPREAKVQWKVDNALQSGNSQESVTEQDSKDSTYSLSSTLTLSKADYEKHKVYACEVTHQGLSSPVTKSFNRGEC
B3: the “Background-Subtracted AF647 Mean Fluorescence Intensity” value in assay [2] is 16 MFI; in assay [3], -59 MFI; in assay [4], 76 MFI; in assay [5], 1890 MFI; in assay [6], 660 MFI; in assay [7], 594 MFI. The “Background-Subtracted AF647 Mean Fluorescence Intensity” value in assay [8] is 611 MFI.

B4: palivizumab (v21995), anti-RSV antibody, negative control (antibody, human IgG1, kappa, V domains shown)
VH: QVTLRESGPALVKPTQTLTLTCTFSGFSLSTSGMSVGWIRQPPGKALEWLADIWWDDKKDYNPSLKSRLTISKDTSKNQVVLKVTNMDPADTATYYCARSMITNWYFDVWGAGTTVTVSS
VL: DIQMTQSPSTLSASVGDRVTITCKSQLSVGYMHWYQQKPGKAPKLLIYDTSKLASGVPSRFSGSGSGTEFTLTISSLQPDDFATYYCFQGSGYPFTFGGGTKLEIKR
Consider B4, for which the “Background-Subtracted AF647 Mean Fluorescence Intensity” value in assay [2] is -2 MFI; in assay [3], 11 MFI; in assay [4], -34 MFI; in assay [5] it was -30 MFI; in assay [6] it was -69 MFI; in assay [7], 19 MFI. In assay [8], the “Background-Subtracted AF647 Mean Fluorescence Intensity” value is 1 MFI.

B5: v38591 (humanized anti-NaPi2b antibody, H1L2, wild-type Fc, heavy chains with C-terminal lysine) (antibody, human IgG1, kappa)
heavy: not shown
light: DVQMTQSPSSLSASVGDRVTITCRASQDVYSYLNWYQQKPGKAVKLLIYYTSRLQSGVPSRFSGSGSGTDYTLTISSLQPEDFATYYCQQYNIFPWTFGQGTKLEIKRTVAAPSVFIFPPSDEQLKSGTASVVCLLNNFYPREAKVQWKVDNALQSGNSQESVTEQDSKDSTYSLSSTLTLSKADYEKHKVYACEVTHQGLSSPVTKSFNRGEC
notes: Full-size human IgG1/kappa antibody; also called v38591 (wild-type Fc)
Turning to B5, the “Background-Subtracted AF647 Mean Fluorescence Intensity” value in assay [2] is -12 MFI; in assay [3] it was -38 MFI; in assay [4], 677 MFI; in assay [5], 1550 MFI; in assay [6] it was 832 MFI; in assay [7], 743 MFI. Further, in assay [8], the “Background-Subtracted AF647 Mean Fluorescence Intensity” value is 725 MFI.
